Data taken from patent US20140087995A1 (published 2014).
Numbered stars: 1 amine (or outer) side, 2 acyl side, 3 side chain; on linkers, the order of the positions; unused ones are H or OH. Bridge positions count the residues as written; N and C are the ends. Square brackets hold non-standard residues; d marks the D form. Side chains are listed from the residue outwards. Ends that are not written are not given here. * marks the point of attachment. C20 diacid = O=C(O)CCCCCCCCCCCCCCCCCCC(=O)*; C18 diacid = O=C(O)CCCCCCCCCCCCCCCCC(=O)*; C16 diacid = O=C(O)CCCCCCCCCCCCCCC(=O)*; γGlu = O=C(O)[C@H](CCC(=O)[*:2])N[*:1]; C14 diacid = O=C(O)CCCCCCCCCCCCC(=O)*; AEEA = NCCOCCOCC(=O)O

T1: human calcitonin receptor (human, UniProt P30988 25-474)
T1 sequence (looked up): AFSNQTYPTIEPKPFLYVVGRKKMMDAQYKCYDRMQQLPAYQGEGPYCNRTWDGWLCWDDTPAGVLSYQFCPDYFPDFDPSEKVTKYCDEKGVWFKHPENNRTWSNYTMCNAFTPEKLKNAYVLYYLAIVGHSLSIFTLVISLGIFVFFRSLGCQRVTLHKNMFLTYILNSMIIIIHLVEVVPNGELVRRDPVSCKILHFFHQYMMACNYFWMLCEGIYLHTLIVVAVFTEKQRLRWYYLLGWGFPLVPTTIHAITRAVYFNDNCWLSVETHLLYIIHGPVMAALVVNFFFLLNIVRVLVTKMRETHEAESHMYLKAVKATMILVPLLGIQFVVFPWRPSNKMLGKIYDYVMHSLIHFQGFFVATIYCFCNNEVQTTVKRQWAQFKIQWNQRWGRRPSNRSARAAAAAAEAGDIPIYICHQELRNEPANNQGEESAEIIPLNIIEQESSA

T2: human amylin 3(a) receptor (human calcitonin receptor + RAMP-3) (human, UniProt P30988 25-474; O60896 24-148, limits assumed)
T2 sequence (looked up) 1: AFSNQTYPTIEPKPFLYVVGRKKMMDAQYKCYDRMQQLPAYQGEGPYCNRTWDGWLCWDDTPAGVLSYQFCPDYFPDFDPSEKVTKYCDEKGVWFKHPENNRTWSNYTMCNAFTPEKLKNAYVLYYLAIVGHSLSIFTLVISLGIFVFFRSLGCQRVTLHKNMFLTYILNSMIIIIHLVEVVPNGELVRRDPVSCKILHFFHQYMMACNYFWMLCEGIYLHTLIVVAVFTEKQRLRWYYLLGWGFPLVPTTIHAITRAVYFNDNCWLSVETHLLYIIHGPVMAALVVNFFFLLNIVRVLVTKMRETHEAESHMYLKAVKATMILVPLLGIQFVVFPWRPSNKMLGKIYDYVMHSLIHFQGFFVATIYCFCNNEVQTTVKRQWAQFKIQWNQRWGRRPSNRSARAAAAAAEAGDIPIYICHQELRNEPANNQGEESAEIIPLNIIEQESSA
T2 sequence (looked up) 2: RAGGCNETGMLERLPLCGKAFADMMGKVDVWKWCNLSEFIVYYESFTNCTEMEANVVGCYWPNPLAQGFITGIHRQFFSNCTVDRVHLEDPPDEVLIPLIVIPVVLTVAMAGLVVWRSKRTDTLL

T3: human calcitonin receptor (human, UniProt P30988 25-474)
T3 sequence (looked up): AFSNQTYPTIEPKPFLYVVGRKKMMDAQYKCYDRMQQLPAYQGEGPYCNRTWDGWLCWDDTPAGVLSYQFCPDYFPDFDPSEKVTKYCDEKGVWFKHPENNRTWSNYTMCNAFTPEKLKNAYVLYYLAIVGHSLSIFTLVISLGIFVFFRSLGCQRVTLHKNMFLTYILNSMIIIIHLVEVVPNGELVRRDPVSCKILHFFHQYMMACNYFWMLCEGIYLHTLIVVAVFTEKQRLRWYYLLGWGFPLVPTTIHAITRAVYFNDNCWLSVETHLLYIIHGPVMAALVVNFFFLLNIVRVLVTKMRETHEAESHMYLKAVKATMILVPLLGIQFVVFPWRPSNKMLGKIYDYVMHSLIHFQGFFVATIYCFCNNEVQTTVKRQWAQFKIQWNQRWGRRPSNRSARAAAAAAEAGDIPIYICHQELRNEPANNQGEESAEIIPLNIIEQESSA


What was measured:
Assay in all cases: cell-based or functional assay
[1] = biological target: T1, human calcitonin receptor
[2] = biological target: T2, human amylin 3(a) receptor (human …)
[3] = biological target: T3, human calcitonin receptor; remark: listed apart in the source

Row | Binder | hCTR funct. EC50 (pM) [1] [pM] | hAmylin-R funct. EC50 (pM) [2] [pM] | Ratio hCT/hAmylin funct. [3]
1 | K([γGlu-γGlu-C20 diacid])CNTATCATQRLAEFLRHSSPNFGAIPSSTNVGPETY-NH2 (disulfide 2-7 (inferred), Synthetic) | 2360 |  | 
2 | K([γGlu-C16 diacid])CNTATCATQRLANFLRHSSPNFGAIPSSTNVGHNTY-NH2 (disulfide 2-7 (inferred), Synthetic) [N^ε1-[(4S)-4-carboxy-4-(15-carboxypentadecanoylamino)butanoyl]-[Arg17,Pro21,Pro27,His34]-h-amylin] | 2210 |  | 
3 | K([γGlu-C20 diacid])CNTATCATQRLADFLRHSSPNFGAIPSSTNVGPRTY-NH2 (disulfide 2-7 (inferred), Synthetic) | 3640 |  | 
4 | K([γGlu-C14 diacid])CNTATCATQRLANFLRHSSPNFGAIPSSTNVGHNTY-NH2 (disulfide 2-7 (inferred), Synthetic) [N^ε1-[(4S)-4-carboxy-4-(13-carboxytridecanoylamino)butanoyl]-[Arg17,Pro21,Pro27,His34]-h-amylin] | 1090 |  | 
5 | K([γGlu-C18 diacid])CNTATCATQRLANFLRHSSPNFGAIPSSTNVGHNTY-NH2 (disulfide 2-7 (inferred), Synthetic) [N^ε1-[(4S)-4-carboxy-4-(17-carboxyheptadecanoylamino)butanoyl]-[Arg17,Pro21,Pro27,His34]-h-amylin] | 5850 |  | 
6 | K([γGlu-C20 diacid])CNTATCATQRLAEFLRHSSPNFGAIPSSTNVGHETY-NH2 (disulfide 2-7 (inferred), Synthetic; also called compound 107) | 2540 |  | 
7 | K([γGlu-C20 diacid])CNTATCATQRLAEFLRHSSPNFGAIPSSTNVGRETY-NH2 (disulfide 2-7 (inferred), Synthetic) | 2740 |  | 
8 | {C20 diacid-γGlu}-GRCNTATCATQRLAAFLRHSSPNFGAIPSSTNVGPNTY-NH2 (disulfide 3-8) |  | 70 | 2.1
9 | {C20 diacid-γGlu}-GRCNTATCATQRLAAFLRHSSPNFGAIPSSTNVGHNTY-NH2 (disulfide 3-8; SMILES CC[C@H](C)[C@H](NC(=O)[C@H](C)NC(=O)CNC(=O)[C@H](Cc1ccccc1)NC(=O)[C@H](CC(N)=O)NC(=O)[C@@H]1CCCN1C(=O)[C@H](CO)NC(=O)[C@H](CO)NC(=O)[C@H](Cc1c[nH]cn1)NC(=O)[C@H](CCCNC(=N)N)NC(=O)[C@H](CC(C)C)NC(=O)[C@H](Cc1ccccc1)NC(=O)[C@H](C)NC(=O)[C@H](C)NC(=O)[C@H](CC(C)C)NC(=O)[C@H](CCCNC(=N)N)NC(=O)[C@H](CCC(N)=O)NC(=O)[C@@H](NC(=O)[C@H](C)NC(=O)[C@@H]1CSSC[C@H](NC(=O)[C@H](CCCNC(=N)N)NC(=O)CNC(=O)CC[C@H](NC(=O)CCCCCCCCCCCCCCCCCCC(=O)O)C(=O)O)C(=O)N[C@@H](CC(N)=O)C(=O)N[C@@H]([C@@H](C)O)C(=O)N[C@@H](C)C(=O)N[C@@H]([C@@H](C)O)C(=O)N1)[C@@H](C)O)C(=O)N1CCC[C@H]1C(=O)N[C@@H](CO)C(=O)N[C@@H](CO)C(=O)N[C@H](C(=O)N[C@@H](CC(N)=O)C(=O)N[C@H](C(=O)NCC(=O)N[C@@H](Cc1c[nH]cn1)C(=O)N[C@@H](CC(N)=O)C(=O)N[C@H](C(=O)N[C@@H](Cc1ccc(O)cc1)C(N)=O)[C@@H](C)O)C(C)C)[C@@H](C)O) |  | 109 | 4.9
10 | {C20 diacid-γGlu}-GRCNTATCATQRLAHFLRHSSPNFGAIPSSTNVGPNTY-NH2 (disulfide 3-8; SMILES CC[C@H](C)[C@H](NC(=O)[C@H](C)NC(=O)CNC(=O)[C@H](Cc1ccccc1)NC(=O)[C@H](CC(N)=O)NC(=O)[C@@H]1CCCN1C(=O)[C@H](CO)NC(=O)[C@H](CO)NC(=O)[C@H](Cc1c[nH]cn1)NC(=O)[C@H](CCCNC(=N)N)NC(=O)[C@H](CC(C)C)NC(=O)[C@H](Cc1ccccc1)NC(=O)[C@H](Cc1c[nH]cn1)NC(=O)[C@H](C)NC(=O)[C@H](CC(C)C)NC(=O)[C@H](CCCNC(=N)N)NC(=O)[C@H](CCC(N)=O)NC(=O)[C@@H](NC(=O)[C@H](C)NC(=O)[C@@H]1CSSC[C@H](NC(=O)[C@H](CCCNC(=N)N)NC(=O)CNC(=O)CC[C@H](NC(=O)CCCCCCCCCCCCCCCCCCC(=O)O)C(=O)O)C(=O)N[C@@H](CC(N)=O)C(=O)N[C@@H]([C@@H](C)O)C(=O)N[C@@H](C)C(=O)N[C@@H]([C@@H](C)O)C(=O)N1)[C@@H](C)O)C(=O)N1CCC[C@H]1C(=O)N[C@@H](CO)C(=O)N[C@@H](CO)C(=O)N[C@H](C(=O)N[C@@H](CC(N)=O)C(=O)N[C@H](C(=O)NCC(=O)N1CCC[C@H]1C(=O)N[C@@H](CC(N)=O)C(=O)N[C@H](C(=O)N[C@@H](Cc1ccc(O)cc1)C(N)=O)[C@@H](C)O)C(C)C)[C@@H](C)O) |  | 62 | 2.9
11 | {C20 diacid-γGlu-AEEA-AEEA}-KCNTATCATQRLAEFLRHSSPNFGAIPSSTNVGSNTP-NH2 (disulfide 2-7; SMILES CC[C@H](C)[C@H](NC(=O)[C@H](C)NC(=O)CNC(=O)[C@H](Cc1ccccc1)NC(=O)[C@H](CC(N)=O)NC(=O)[C@@H]1CCCN1C(=O)[C@H](CO)NC(=O)[C@H](CO)NC(=O)[C@H](Cc1c[nH]cn1)NC(=O)[C@H](CCCNC(=N)N)NC(=O)[C@H](CC(C)C)NC(=O)[C@H](Cc1ccccc1)NC(=O)[C@H](CCC(=O)O)NC(=O)[C@H](C)NC(=O)[C@H](CC(C)C)NC(=O)[C@H](CCCNC(=N)N)NC(=O)[C@H](CCC(N)=O)NC(=O)[C@@H](NC(=O)[C@H](C)NC(=O)[C@@H]1CSSC[C@H](NC(=O)[C@H](CCCCN)NC(=O)COCCOCCNC(=O)COCCOCCNC(=O)CC[C@H](NC(=O)CCCCCCCCCCCCCCCCCCC(=O)O)C(=O)O)C(=O)N[C@@H](CC(N)=O)C(=O)N[C@@H]([C@@H](C)O)C(=O)N[C@@H](C)C(=O)N[C@@H]([C@@H](C)O)C(=O)N1)[C@@H](C)O)C(=O)N1CCC[C@H]1C(=O)N[C@@H](CO)C(=O)N[C@@H](CO)C(=O)N[C@H](C(=O)N[C@@H](CC(N)=O)C(=O)N[C@H](C(=O)NCC(=O)N[C@@H](CO)C(=O)N[C@@H](CC(N)=O)C(=O)N[C@H](C(=O)N1CCC[C@H]1C(N)=O)[C@@H](C)O)C(C)C)[C@@H](C)O, also called compound 20) |  | 80 | 3.6

The next lines start with the values.

Row | hCTR funct. EC50 (pM) [1] [pM] | hAmylin-R funct. EC50 (pM) [2] [pM] | Ratio hCT/hAmylin funct. [3] | Binder
12 | 7280 |  |  | K([γGlu-γGlu-C20 diacid])CNTATCATQRLADFLRHSSPNFGAIPSSTNVGPRTY-NH2 (disulfide 2-7 (inferred), Synthetic; also called compound 130)
13 | 7430 |  |  | K([γGlu-γGlu-C20 diacid])CNTATCATQRLAEFLRHSSPNFGAIPSSTNVGRETY-NH2 (disulfide 2-7 (inferred), Synthetic)
14 | 2830 |  |  | K([γGlu-γGlu-C20 diacid])CNTATCATQRLAEFLRHSSPNFGAIPSSTNVGPHTY-NH2 (disulfide 2-7 (inferred), Synthetic)
15 | 6380 |  |  | K([γGlu-C20 diacid])CNTATCATQRLAEFLRHSSPNFGAIPSSTNVGPRTY-NH2 (disulfide 2-7 (inferred), Synthetic)
16 | 7050 |  |  | K([γGlu-γGlu-C20 diacid])CNTATCATQRLAEFLRHSSPNFGAIPSSTNVGHETY-NH2 (disulfide 2-7 (inferred), Synthetic)
17 | 8160 |  |  | K([γGlu-γGlu-C20 diacid])CNTATCATQRLAEFLRHSSPNFGAIPSSTNVGPRTY-NH2 (disulfide 2-7 (inferred), Synthetic; also called compound 110)
18 | 843 |  |  | K([γGlu-γGlu-C20 diacid])CNTATCATQRLADFLRHSSPNFGAIPSSTNVGPETY-NH2 (disulfide 2-7 (inferred), Synthetic)
19 | 1450 |  |  | K([γGlu-C20 diacid])CNTATCATQRLAEFLRHSSPNFGAIPSSTNVGPHTY-NH2 (disulfide 2-7 (inferred), Synthetic)
20 | 100000 |  |  | K([γGlu-γGlu-C20 diacid])CNTATCATQRLA[dD]FLRHSSPNFGAIPSSTNVGSRTY-NH2 (disulfide 2-7 (inferred), Synthetic)
21 | 5580 |  |  | K([γGlu-C20 diacid])CNTATCATQRLAEFLRHSSPNFGAIPSSTNVGSHTY-NH2 (disulfide 2-7 (inferred), Synthetic)
22 | 8660 |  |  | K([γGlu-γGlu-C20 diacid])CNTATCATQRLANFLRHSSPNFGAIPSSTPVGPRTY-NH2 (disulfide 2-7 (inferred), Synthetic)
